According to patent US9255257B2, “PmST1 mutants for chemoenzymatic synthesis of sialyl lewis X compounds” (THE REGENTS OF THE UNIVERSITY OF CALIFORNIA, priority 2011, dated 2016):
Substitutions are numbered along the chain they refer to. In names and notes the source's numbering stands. Entries after “also recorded” stand apart in the source; their conditions may differ.

B1: WT: multifunctional α2-3-sialyltransferase from Pasteurella multocida (PmST1), wild type sequence SEQ ID NO: 13; control enzyme (protein, listed as Pasteurella multocida)
chain: MKNRRLNFKLFFLIIFSLFSTLSWSKTITLYLDPASLPALNQLMDFTQNNEDKTHPRIFGLSRFKIPDNIITQYQNIHFVELKDNRPTEALFTILDQYPGNIELNIHLNIAHSVQLIRPILAYRFKHLDRVSIQQLNLYDDGSMEYVDLEKEENKDISAEIKQAEKQLSHYLLTGKIKFDNPTIARYVWQSAFPVKYHFLSTDYFEKAEFLQPLKEYLAENYQKMDWTAYQQLTPEQQAFYLTLVGFNDEVKQSLEVQQAKFIFTGTTTWEGNTDVREYYAQQQLNLLNHFTQAEGDLFIGDHYKIYFKGHPRGGEINDYILNNAKNITNIPANISFEVLMMTGLLPDKVGGVASSLYFSLPKEKISHIIFTSNKQVKSKEDALNNPYVKVMRRLGIIDESQVIFWDSLKQL
modifications: PmST1 wild-type glycosyltransferase family 80 (GT80), GT80 sialyltransferase, Pm0188Ph
notes: control enzyme
B2: M144H (protein)
chain: B1 chain with M144H
B3: M144D (protein, listed as Pasteurella multocida)
chain: B1 chain with M144D
modifications: PmST1 wild-type glycosyltransferase family 80 (GT80), GT80 sialyltransferase, Pm0188Ph

How the values were obtained:
[1] = HPLC time course of PmST1-catalyzed α2-3-sialylation of Le^xβMU; type: biochemical; conditions: Le^xβMU 1 mM, one equivalent of CMP-Neu5Ac
Excerpt: Numbers in parentheses represent the % consumption of CMP-Neu5Ac by capillary electrophoresis (CE) assays.
In fact, donor hydrolysis has been observed in other glycosyltransferase-catalyzed reactions that lead to lower synthetic yields. […] Two recent papers discussed the donor hydrolysis activities of human blood group A and B glycosyltransferases (GTA and GTB) which are Mn^2+-dependent and the UDP-Gal hydrolysis activity of GTB is increased in the presence of an acceptor substrate analog. Nevertheless, the effect of donor hydrolysis of glycosyltransferases on glycosylation processes has not been investigated in detail. In addition, no strategy has been reported for improving the yields of glycosyltransferase-catalyzed reactions by decreasing donor hydrolysis activity.

[2] = α2-3-sialidase activity assay with sialyl Le^x substrate (HPLC); type: biochemical; conditions: for Neu5Ac cleaved from Neu5Acα2-3Le^xβMU: substrate 1 mM, enzyme 4 mg mL^−1, MES pH 5.5, 37° C.
Procedure: The α2-3-sialidase activity assays of PmST1 and mutants. The reactions were carried out in duplicate in a total volume of 10 μL at 37° C. for 20 hr in MES buffer (100 mM, pH 5.5) containing Neu5Acα2-3Le^xβMU (1 mM) and an enzyme (4 mg mL^−1). Aliquots of 1 μL were withdrawn at 1 hr, 6 hr and 20 hr, and analyzed by HPLC as described above for the α2-3-sialyltransferase assays.

[3] = Thermal stability studies by HPLC; type: physicochemical; conditions: incubating at 37° C. for up to 2 hours
Procedure: Stability studies by HPLC. Thermal stability studies were carried out by incubating wild-type PmST1 or E271F/R313Y mutant solution (20 μg mL^−1) at 37° C. Samples were withdrawn at various time intervals for enzyme activity assays.

[4] = Apparent kinetics of the α2-3-sialyltransferase activity, Le^xβMU acceptor and CMP-Neu5Ac donor (HPLC); type: biochemical; conditions: acceptor Le^xβMU
[5] = Apparent kinetics of the α2-3-sialyltransferase activity, LacβMU acceptor and CMP-Neu5Ac donor (HPLC); type: biochemical; conditions: acceptor LacβMU
Procedure: To obtain the apparent kinetic parameters of LacβMU as the acceptor for the α2-3-sialyltransferase activity, the kinetic assays were performed in duplicate in reaction mixtures of 10 μL containing Tris-HCl buffer (100 mM, pH 8.5), a fixed concentration of CMP-Neu5Ac (1 mM), different concentrations of LacβMU (0.2, 0.5, 1.0, 2.0, 5.0, and 9.0 mM) and the mutant proteins (2 μg mL^−1 of E271F, 2 μg mL^−1 of R313Y, and 1.6 μg mL^−1 of E271F/R313Y). All reactions were allowed to proceed at 37° C. for 5 min (E271F), 7 min (R313Y), and 10 min (E271F/R313Y). The apparent kinetic parameters were obtained by fitting the experimental data (the average values of duplicate assay results) into the Michaelis-Menten equation using Grafit 5.0.
To obtain the apparent kinetic parameters of CMP-Neu5Ac as the donor for the α2-3-sialyltransferase activity, the kinetic assays were performed in duplicate in reaction mixtures of 10 μL containing Tris-HCl buffer (100 mM, pH 8.5), a fixed concentration of LacβMU (1 mM), different concentrations of CMP-Neu5Ac (0.1, 0.2, 0.5, 1.0, 2.0, 5.0, 10.0 and 20.0 mM) and the mutant proteins (2 μg mL^−1 of E271F, 2 μg mL^−1 of R313Y, and 1.6 μg mL^−1 of E271F/R313Y). All reactions were allowed to proceed at 37° C. for 2 min (E271F), 7 min (R313Y), and 5 min (E271F/R313Y). The apparent kinetic parameters were obtained by fitting the experimental data (the average values of duplicate assay results) into the Michaelis-Menten equation using Grafit 5.0.
All the sialidase and α2-3-sialyltransferase assays were performed in an HPLC system. Reactions were stopped by adding 10 μL of ethanol. After necessary dilutions were performed to adjust the concentrations of the fluorescent-labeled compounds, the samples were then kept on ice until aliquots of 8 μL were injected and analyzed by a Shimadzu LC-6AD system equipped with a membrane on-line degasser, a temperature control unit, and a fluorescence detector (Shimadzu RF-10AXL). A reverse-phase Premier C18 column (250×4.6 mm i.d., 5 μm particle size, Shimadzu) protected with a C18 guard column cartridge was used. The mobile phase was 25% acetonitrile. The fluorescent compounds LacβMU and Neu5Acα2-3LacβMU were detected by excitation at 325 nm and emission at 372 nm.
Kinetics of the α2-3-sialyltransferase activity of PmST1 mutants by HPLC analysis. […] The supernatants were diluted with 25% acetonitrile and kept on ice until aliquots of 8 μL were injected and analyzed by the Shimadzu LC-6AD system equipped with a membrane on-line degasser, a temperature control unit, and a fluorescence detector (Shimadzu RF-10AXL). […] The fluorophore (MU)-labeled compounds were detected by excitation at 325 nm and emission at 372 nm. […]

[6] = Kinetics of the donor (CMP-Neu5Ac) hydrolysis activity by capillary electrophoresis; type: biochemical
Procedure: The reactions were stopped by adding 10 μL of pre-chilled ethanol. The mixtures were incubated on ice for 30 min and centrifuged at 13,000 rpm for 5 min. The supernatants were diluted with borate buffer (25 mM, pH 9.5) and aliquotes of 5 μL each were injected to a Beckman Coulter P/ACE™ MDQ Capillary Electrophoresis system equipped with a capillary (60 cm×75 μm i.d.) and monitored at 254 nm. The apparent kinetic parameters were obtained by fitting the experimental data (the average values of duplicate assay results) into the Michaelis-Menten equation using Grafit 5.0.

[7] = Apparent kinetics of the α2-3-sialidase activity (HPLC, fluorescent sialoside substrate); type: biochemical; conditions: substrate Neu5Acα2-3LacβMU
Procedure: All the sialidase and α2-3-sialyltransferase assays were performed in an HPLC system. Reactions were stopped by adding 10 μL of ethanol. […] The mobile phase was 25% acetonitrile.
Kinetics of the α2-3-sialidase activity of PmST1 mutants.

Row | Molecule | time to reach yield plateau [1] [min] | yield plateau of sialylation of Le^xβMU [1] | Neu5Ac cleaved from Neu5Acα2-3Le^xβMU ([2]; 1 h) [%] | Neu5Ac cleaved from Neu5Acα2-3Le^xβMU ([2]; 6 h) [%] | Neu5Ac cleaved from Neu5Acα2-3Le^xβMU ([2]; 20 h) [%] | thermal stability of α2-3-sialyltransferase activity (FIG. 3, in words) [3] | increase of efficiency of α2-3-sialyltransferase activity compared to WT [4] [fold] | sialidase activity with Neu5Acα2-3Le^xβMU as substrate (in words) [2] | decrease of α2-3-sialyltransferase activity compared to WT [5] [fold] | decrease of efficiency of CMP-Neu5Ac (donor) hydrolysis activity compared to WT [6] [fold] | increase of Km value, donor hydrolysis, compared to WT [6] [fold] | increase of kcat value, donor hydrolysis, compared to WT [6] [fold] | decrease of α2-3-sialidase activity (catalytic efficiency kcat/Km) compared to wild-type PmST1 [7] [fold] | change of efficiency of α2-3-sialyltransferase activity compared to WT (in words) [4] | decrease of kcat value, α2-3-sialyltransferase activity, compared to WT [5] [fold] | increase of Km value, α2-3-sialyltransferase activity, compared to WT [5] [fold] | decrease of kcat value, donor hydrolysis, compared to WT [6] [fold]
1 | B1 | ≤ 2 | 1.1-1.3% | 2.0 | 7.0 | 7.5 | did not decrease their activities significantly | – | – | – | – | – | – | – | – | – | – | –
2 | B2 | – | – | 10.0 | 24.5 | 34.0 | – | 2.6 | increased sialidase activity compared to the WT PmST1 | 1.3 | 3.3 | 8.7 | 2.6 | 594 | – | – | – | –
3 | B3 | – | – | – | – | – | – | – | no sialidase activity | 18 | 20 | 4.9 | – | 5588 | did not change the efficiency of the α2-3-sialyltransferase activity of PmST1 significantly; also recorded: without appreciably changing the efficiency of the α2-3-sialyltransferase activity | 2 | 9 | 4.2
